Results: US6846636B1, “Methods and compositions for HDL holoparticle uptake receptor” (American National Red Cross, priority 1998, dated 2005)

What was measured:
[1] = test system: RA/Bt2cAMP-treated F9 cells; test: [125I]-HDL internalization and degradation assay; format: cell-based, mouse; conditions: [125I]-HDL 2 μg/ml, 6.5 h at 37° C.; unlabeled HDL 80 μg/ml, RAP 1 μM, chloroquine 50 μM, anti-cubilin IgG 150 μg/ml
Protocol: HDL internalization and degradation assays were performed in a manner similar to LDL and apolipoprotein J internalization and degradation assays described previously (Stefansson et al., 1995; Kounnas et al., 1995). ApoE-free HDL (HDL3) was labeled with [^125I]-iodine using the iodine monochloride method (Goldstein et al., 1983). RA/Bt2cAMP-treated and -untreated F9 cells were seeded onto gelatin-coated 3.83 cm^2 wells (Corning, Corning, N.Y.) at 1.5-1.75×10^5 cells/well and allowed to grow for 18 h at 37° C., 5% CO2. Prior to the addition of [^125I]-HDL, the cells were washed with serum-free DMEM and incubated in the assay medium (DMEM, 20 mM HEPES, ITS, penicillin/streptomycin, and 1.5% BSA) containing unlabeled HDL3 (80 μg/ml), RAP (1 μM), chloroquine (50 μM) (Sigma) or BSA (10 μM) and incubated for 0.5 hours at 37° C., 5% CO2. The medium was then removed and [^125I]-HDL3 (2 μg/ml) in serum-free medium or in serum-free medium containing unlabeled HDL3 (80 μg/ml), RAP (1 μM), chloroquine (50 μM) or BSA (10 μM) was added and incubated with the cells for 6.5 h at 37° C., 5% CO2. The conditioned culture medium was treated with trichloroacetic acid (final concentration 10%) and centrifuged at 10,000×g for 10 min. The amount of radioactivity present in the supernatant was taken to represent the amount of degraded HDL (Goldstein and Brown, 1974). […] The released cells were pelleted by centrifugation at 1,000×g for 15 min and the amount of radioactivity in the cell pellet measured.
HDL internalization and degradation assays were performed as described previously for LDL and apolipoprotein J (Hammad et al., 1997; Kounnas et al., 1995; Stefansson et al., 1995a). […] The amount of radioactivity in the supernatant was taken to represent the amount of degraded HDL (Goldstein and Brown, 1974). […] The released cells were pelleted by centrifugation at 1,000×g for 15 min and the amount of radioactivity in the cell pellet was measured and taken to represent the amount of internalized HDL.

[2] = test system: visceral yolk sac endoderm; test: DiI-HDL uptake by mouse embryo yolk sac (ex utero culture, confocal microscopy); conditions: ± S.D.; DiI-HDL 1 μg/ml 1 h; RAP, ovalbumin 1 μM; IgGs 400 μg/ml; p<0.01 vs control
Protocol: Embryos (8-8.5 days post-conception) were removed from timed pregnant ICR mice (Harlan Sprague Dawley, Inc.) so as to leave visceral yolk sac endoderm intact and placed in DMEM. The embryos were then incubated in DMEM containing RAP (1 μM), ovalbumin (1 μM), rabbit anti-cubilin IgG (400 μg/ml) or normal rabbit IgG (400 μg/ml) for 0.5 h at 37° C., 5% CO2. DiI-HDL was added to a final concentration of (1 μg/ml) and incubated for 1 h at 37° C., 5% CO2. The medium was removed and the embryos gently washed with dPBS and fixed with 3% paraformaldehyde for 15 min. The fixed embryos were placed in dPBS, 0.1% azide in a well slide and examined by laser scanning confocal microscopy. The intensity of yolk sac fluorescence in mouse embryos incubated with DiI-HDL in the presence of either RAP, ovalbumin, anti-cubilin IgG or control IgG was evaluated by seven people in a double blinded fashion. The assessments of relative intensity were analyzed by a nonparametric statistical test using RANK and ANOVA procedures (SAS Institute, Inc., Cary, N.C.).

B1: RAP: 39 kDa chaperone protein that inhibits ligand binding to LDLR family members; recombinant human RAP (protein, UniProt P30533 35-357, looked up)
Alpha-2-macroglobulin …: YSREKNQPKPSPKRESGEEFRMEKLNQLWEKAQRLHLPPVRLAELHADLKIQERDELAWKKLKLDGLDEDGEKEARLIRNLNVILAKYGLDGKKDARQVTSNSLSGTQEDGLDDPRLEKLWHKAKTSGKFSGEELDKLWREFLHHKEKVHEYNVLLETLSRTEEIHENVISPSDLSDIKGSVLHSRHTELKEKLRSINQGLDRLRRVSHQGYSTEAEFEEPRVIDLWDLAQSANLTDKELEAFREELKHFEAKIEKHNHYQKQLEIAHEKLRHAESVGDGERVSRSREKHALLEGRTKELGYTVKKHLQDLSGRISRARHNEL
degradation of [125I]-HDL [1]: inhibited the endocytosis and degradation | internalization (endocytosis) of [125I]-HDL [1]: inhibited the endocytosis and degradation | fluorescence intensity RANK score of DiI-HDL incorporation into extraembryonic endoderm [2]: 9.77±0.22
